Changes are numbered by the printed parent chain. Where “and” joins values, the source holds several entries; their conditions need not be identical. Equal entries are not always repeated.
T1: Mouse BMP1-3: 126-707 (mouse, UniProt P98063 126-707)
T1 sequence (looked up): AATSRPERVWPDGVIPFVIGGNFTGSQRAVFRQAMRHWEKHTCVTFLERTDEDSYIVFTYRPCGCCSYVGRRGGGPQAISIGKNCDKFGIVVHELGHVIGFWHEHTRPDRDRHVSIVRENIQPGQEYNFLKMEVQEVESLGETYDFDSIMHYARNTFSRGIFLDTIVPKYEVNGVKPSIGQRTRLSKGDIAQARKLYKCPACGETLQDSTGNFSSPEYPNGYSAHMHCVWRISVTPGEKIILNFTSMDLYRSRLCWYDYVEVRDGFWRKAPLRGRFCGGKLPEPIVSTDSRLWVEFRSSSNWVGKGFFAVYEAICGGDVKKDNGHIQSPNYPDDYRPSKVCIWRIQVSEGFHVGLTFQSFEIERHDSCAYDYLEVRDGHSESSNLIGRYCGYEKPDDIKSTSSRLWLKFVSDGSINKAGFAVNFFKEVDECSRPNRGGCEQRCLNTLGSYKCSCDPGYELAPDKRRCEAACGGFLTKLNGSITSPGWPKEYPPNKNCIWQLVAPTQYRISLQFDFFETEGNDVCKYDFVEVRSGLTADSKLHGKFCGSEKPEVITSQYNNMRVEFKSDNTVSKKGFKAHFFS

T2: Human BMP1-1 (human, UniProt P13497-2 121-730, limits assumed)
T2 sequence (looked up): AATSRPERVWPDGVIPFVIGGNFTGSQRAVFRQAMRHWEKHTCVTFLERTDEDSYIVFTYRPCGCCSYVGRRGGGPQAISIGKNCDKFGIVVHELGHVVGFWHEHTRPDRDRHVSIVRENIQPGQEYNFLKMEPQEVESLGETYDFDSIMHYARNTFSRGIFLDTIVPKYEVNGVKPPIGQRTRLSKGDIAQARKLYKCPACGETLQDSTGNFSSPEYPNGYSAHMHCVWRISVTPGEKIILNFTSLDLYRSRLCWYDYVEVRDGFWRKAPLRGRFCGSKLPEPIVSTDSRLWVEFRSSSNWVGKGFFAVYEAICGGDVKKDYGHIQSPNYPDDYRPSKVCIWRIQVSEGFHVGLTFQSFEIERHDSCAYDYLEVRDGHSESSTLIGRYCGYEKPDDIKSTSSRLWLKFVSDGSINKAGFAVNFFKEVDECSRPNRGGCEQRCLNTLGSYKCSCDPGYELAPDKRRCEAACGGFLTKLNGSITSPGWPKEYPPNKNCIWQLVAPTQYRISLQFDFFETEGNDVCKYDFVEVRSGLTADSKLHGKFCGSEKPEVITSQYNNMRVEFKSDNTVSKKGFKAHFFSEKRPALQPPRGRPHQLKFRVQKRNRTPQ

T3: Human BMP1 CD+CUB1 truncated antigen (human, UniProt P13497 121-434, limits assumed)
T3 construct: domain: CD+CUB1
T3 sequence (looked up): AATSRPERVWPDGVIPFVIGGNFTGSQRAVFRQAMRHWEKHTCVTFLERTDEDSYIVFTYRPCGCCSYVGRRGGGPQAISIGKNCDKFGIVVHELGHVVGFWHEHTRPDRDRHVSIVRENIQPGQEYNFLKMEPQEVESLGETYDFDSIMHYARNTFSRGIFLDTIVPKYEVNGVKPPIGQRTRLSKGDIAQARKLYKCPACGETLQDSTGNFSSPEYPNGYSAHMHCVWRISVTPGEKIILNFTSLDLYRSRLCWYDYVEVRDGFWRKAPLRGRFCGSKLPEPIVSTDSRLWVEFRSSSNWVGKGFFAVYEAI

T4: Human TLL2 CD+CUB1 truncated antigen (human, UniProt Q9Y6L7 150-463, limits assumed)
T4 construct: domain: CD+CUB1
T4 sequence (looked up): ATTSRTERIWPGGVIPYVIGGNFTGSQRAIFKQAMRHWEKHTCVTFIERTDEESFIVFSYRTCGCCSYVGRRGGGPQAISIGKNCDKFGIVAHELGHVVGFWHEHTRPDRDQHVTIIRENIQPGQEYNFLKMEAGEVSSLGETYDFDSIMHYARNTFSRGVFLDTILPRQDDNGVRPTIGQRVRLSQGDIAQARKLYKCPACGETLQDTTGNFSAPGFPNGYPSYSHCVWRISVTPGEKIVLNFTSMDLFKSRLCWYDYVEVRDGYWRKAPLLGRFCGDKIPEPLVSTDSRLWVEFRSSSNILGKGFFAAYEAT

T5: Mouse BMP1 CD+CUB1 truncated antigen (mouse, UniProt P98063 126-439, limits assumed)
T5 construct: domain: CD+CUB1
T5 sequence (looked up): T3 sequence (looked up) with V99I, P134V, P178S, L247M, S279G

B1: 13Y039-4B06-4334 human variable region on rat IgG2b LAGA Fc and rat Kappa (Compound C) (antibody)
heavy: QVQLVQSGAEVKKPGASVKVSCKASGYTFLGYYMSWVRQAPGQGLEWMGWINPLSGETNYAQKFQGRVTMTRDTSISTAYMELSRLRSDDTAVYYCARDTGELDGMNWYFDLWGRGTLVTVSSAQTTAPSVYPLAPGCGDTTSSTVTLGCLVKGYFPEPVTVTWNSGALSSDVHTFPAVLQSGLYTLTSSVTSSTWPSQTVTCNVAHPASSTKVDKKVERRNGGIGHKCPTCPTCHKCPVPELAGAPSVFIFPPKPKDILLISQNAKVTCVVVDVSEEEPDVQFSWFVNNVEVHTAQTQPREEQYNSTFRVVSALPIQHQDWMSGKEFKCKVNNKALPSPIEKTISKPKGLVRKPQVYVMGPPTEQLTEQTVSLTCLTSGFLPNDIGVEWTSNGHIEKNYKNTEPVMDSDGSFFMYSKLNVERSRWDSRAPFVCSVVHEGLHNHHVEKSISRPPGK
light: EIVLTQSPATLSLSPGERATLSCRASQSVSSYLAWYQQKPGQAPRLLIYDASNRATGIPARFSGSGSGTDFTLTISSLEPEDFAVYYCQQSDSWPPTFGGGTKVEIKRADAAPTVSIFPPSTEQLATGGASVVCLMNNFYPRDISVKWKIDGTERRDGVLDSVTDQDSKDSTYSMSSTLSLTKADYESHNLYTCEVVHKTSSSPVVKSFNRNEC
B2: 13Y039-3E07-2944 human variable region on mouse IgG2a LAGA Fc, mouse cKappa (Compound B) (antibody)
heavy: QVQLQQWGAGLLKPSETLSLTCAVYGGSFFGDYWSWIRQPPGKGLEWIGEIDWSGATNYNPSLKSRVTISVDTSKNQFSLKLSSVTAADTAVYYCARGGSKELSFDIWGQGTMVTVSSAKTTAPSVYPLAPVCGDTTGSSVTLGCLVKGYFPEPVTLTWNSGSLSSGVHTFPAVLQSDLYTLSSSVTVTSSTWPSQSITCNVAHPASSTKVDKKIEPRGPTIKPCPPCKCPAPNLAGAPSVFIFPPKIKDVLMISLSPIVTCVVVDVSEDDPDVQISWFVNNVEVHTAQTQTHREDYNSTLRVVSALPIQHQDWMSGKEFKCKVNNKDLPAPIERTISKPKGSVRAPQVYVLPPPEEEMTKKQVTLTCMVTDFMPEDIYVEWTNNGKTELNYKNTEPVLDSDGSYFMYSKLRVEKKNWVERNSYSCSVVHEGLHNHHTTKSFSRTPGK
light: DIQMTQSPSSLSASVGDRVTITCQASQDIANYLNWYQQKPGKAPKLLIYDASNLETGVPSRFSGSGSGTDFTFTISSLQPEDIATYYCQQADTLPFTFGGGTKVEIKRADAAPTVSIFPPSSEQLTSGGASVVCFLNNFYPKDINVKWKIDGSERQNGVLNSWTDQDSKDSTYSMSSTLTLTKDEYERHNSYTCEATHKTSTSPIVKSFNRNEC
notes: Reverse chimera; also called 13Y039-3E07-2944, mIgG2a LAGA

Tests used:
Mouse BMP1-3: 126-707 = biological target: T1, Mouse BMP1-3: 126-707; experiment: cell-based or functional assay
Human BMP1-1 = biological target: T2, Human BMP1-1; experiment: cell-based or functional assay
[1] = biological target: T3, Human BMP1 CD+CUB1 truncated antigen; experiment: SPR, captured mAb, enzyme dilution buffer
[2] = biological target: T4, Human TLL2 CD+CUB1 truncated antigen; experiment: SPR, captured mAb, HBS-EP
Method: (§1) Both antibodies 13Y039-4B06-4334 and 13Y039-3E07-2944 and the reverse chimeric antibodies were evaluated for binding to human TLL2 CD+CUB1 and mouse BMP1 CD+CUB1 truncated antigens by SPR on a BIACORE T200. Protein A/G was immobilised to a CM5 sensor chip via amine coupling and the antibodies were captured to the protein A/G surface. The antigens were passed over the captured antibody at various concentrations. The measured affinities to human TLL2 CD+CUB1 are shown in Table 2 and the measured affinities to mouse BMP1 CD+CUB1 are shown in Table 3.

[3] = biological target: T5, Mouse BMP1 CD+CUB1 truncated antigen; experiment: SPR, captured mAb, HBS-EP
Method: as §1

[4] = biological target: T3, Human BMP1 CD+CUB1 truncated antigen; experiment: SPR, captured mAb, HBS-EP

Binder	pKi, app, FRET enzyme activity, Mouse BMP1 (Mouse BMP1-3: 126-707)	pKi, app, FRET enzyme activity, Human BMP1 (Human BMP1-1)	Kd [1] [nM]	binding result [2]	Kd [3]	Kd [4] [nM]
B1	11.3	11.8				
B2			0.07	no binding	2.66 nM and 6.2 nM	5.31
